Experimental data as given in the RNAGym collection of RNA variant scans (doi:10.1073/pnas.2313332121).
Variants at the floor of the assay were thinned out.

B1: TPR 5TU (parent)
chain: GGAUCUUCUCGAUCUAACAAAAAAGACAAAUCUGCCACAAAGCUUGAGAGCAUCUUCGGAUGCAGAGGCGGCAGCCUUCGGUGGCGCGAUAGCGCCAACGUUCUCAACUAUGACACGCAAAACGCGUGCUCCGUUGAAUGGAGUUUAUCAUG

Variants of: B1
Assay: polymerase ribozyme fitness, log enrichment relative to wild type (log ratio); higher = more active; in vitro selection for triplet polymerase activity
In short: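 In triplicate, a single round of in vitro selection was run on each mutant library, PCR-built and transcribed, covering one subunit of a heterodimeric triplet polymerase ribozyme. Frozen incubation at −7 °C followed annealing with a biotinylated primer, partner subunit and triplets, and extended constructs were then gel-excised, streptavidin-captured and taken through RT-PCR. Fitness is the logarithm of genotype enrichment over wild-type enrichment, from inverse-variance-weighted replicate averages of Illumina-sequenced inputs and outputs. […] only genotypes with ≥10 input reads and ≥1 read per output were kept.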

Going from A29U C76G U82G G88C to A30G A91U, the “polymerase ribozyme fitness (log ratio)” value rises from ≤ -4.2 to -4.18.

A29C C69G C103G U151G and A30G A41U U55G C93U cannot be ordered by “polymerase ribozyme fitness (log ratio)” value: ≤ -4.2 for the first, ≤ -4.2 for the second.

Compared with A30G C57U, A29G C95A A119C G141C is lower in “polymerase ribozyme fitness (log ratio)” value: -2.81 for the first, ≤ -4.2 for the second.

Going from A28G A73U to A28G A66C C79U G92U U148C, the “polymerase ribozyme fitness (log ratio)” value rises from ≤ -4.2 to -3.86.

C27U C36U C57U G58A C96A A121U G140A and A28C G67C C87A U109A cannot be ordered by “polymerase ribozyme fitness (log ratio)” value: ≤ -4.2 for the first, ≤ -4.2 for the second.

A28U U56A A97G and A30G A49G cannot be ordered by “polymerase ribozyme fitness (log ratio)” value: ≤ -4.2 for the first, ≤ -4.2 for the second.

A30U U56A G58C C132A A147U and C27U A47U C96A C103A G117A cannot be ordered by “polymerase ribozyme fitness (log ratio)” value: ≤ -4.2 for the first, ≤ -4.2 for the second.

A28U U44A U55A U77G A120U and A29U G59A C79G G80U G84U G124U cannot be ordered by “polymerase ribozyme fitness (log ratio)” value: ≤ -4.2 for the first, ≤ -4.2 for the second.

Going from C27U U55G C85U A89U to A30U G80A G81U C85U U104A C105G, the “polymerase ribozyme fitness (log ratio)” value falls from -2.33 to ≤ -4.2.

A29U G58A C85G A138C and A28U A49C U56A C95A C96U C108U cannot be ordered by “polymerase ribozyme fitness (log ratio)” value: ≤ -4.2 for the first, ≤ -4.2 for the second.

A29C G46U U127G and A28U G92C A113U cannot be ordered by “polymerase ribozyme fitness (log ratio)” value: ≤ -4.2 for the first, ≤ -4.2 for the second.

C27U A30U U55A G65U U102C A110G U111G C131A U134A and A28G U55A G58C A122G cannot be ordered by “polymerase ribozyme fitness (log ratio)” value: ≤ -4.2 for the first, ≤ -4.2 for the second.

A28U U33G A89G A91G C95A A98C and A28U G94A cannot be ordered by “polymerase ribozyme fitness (log ratio)” value: ≤ -4.2 for the first, ≤ -4.2 for the second.

A28G U55A G67U A89C C129A G140C and A30C A49U C57G C79A C96U A107U cannot be ordered by “polymerase ribozyme fitness (log ratio)” value: ≤ -4.2 for the first, ≤ -4.2 for the second.

Compared with C27U U145G, A28U C95U C99U C118A is lower in “polymerase ribozyme fitness (log ratio)” value: -1.39 for the first, ≤ -4.2 for the second.

A30G A49G U56A A66U C79U C85U G128A and A28C A40G G59U C87G A110G G143U G152C cannot be ordered by “polymerase ribozyme fitness (log ratio)” value: ≤ -4.2 for the first, ≤ -4.2 for the second.

Compared with A28U C32G G133C, A29G C54A is higher in “polymerase ribozyme fitness (log ratio)” value: ≤ -4.2 for the first, -3.78 for the second.

A29U A41G G48C A138G and A30G C38U G48A A66C G80U G84A C105G U109A C125A cannot be ordered by “polymerase ribozyme fitness (log ratio)” value: ≤ -4.2 for the first, ≤ -4.2 for the second.

A30U U78C G94U A98G G152A and A30U G86A C96U A107U A142U C149G cannot be ordered by “polymerase ribozyme fitness (log ratio)” value: ≤ -4.2 for the first, ≤ -4.2 for the second.

A29G C75U C96U U139G and A29U C32U G34C C72U C95A G140C cannot be ordered by “polymerase ribozyme fitness (log ratio)” value: ≤ -4.2 for the first, ≤ -4.2 for the second.

A29U U90G C95U A115G G117U A120U and A30C G74C C75A C76U G84U C87A C116G cannot be ordered by “polymerase ribozyme fitness (log ratio)” value: ≤ -4.2 for the first, ≤ -4.2 for the second.

Going from A30U G46A U55A G74A U145A to C27U A37C U56G, the “polymerase ribozyme fitness (log ratio)” value rises from ≤ -4.2 to -2.92.

C27G G152A and A30U C32U G50U C51U U82C A106U A119C cannot be ordered by “polymerase ribozyme fitness (log ratio)” value: ≤ -4.2 for the first, ≤ -4.2 for the second.

A28G A47U A49C C85A G136C U146G and A28U C38U G59U A60G G94A C95U C103U cannot be ordered by “polymerase ribozyme fitness (log ratio)” value: ≤ -4.2 for the first, ≤ -4.2 for the second.

A29C C63A C87U U101C A115C G117C G133A and A29U A52G C76G G84A C116G C118A A137G G141A C149U G152C cannot be ordered by “polymerase ribozyme fitness (log ratio)” value: ≤ -4.2 for the first, ≤ -4.2 for the second.

A28C G67U U144C U151C and A30G C75G U82C C99A cannot be ordered by “polymerase ribozyme fitness (log ratio)” value: ≤ -4.2 for the first, ≤ -4.2 for the second.

A29C C43G U53A G62U A147C and A30C C38G A49C U61A A66C G67C C93G A110U G124C G143A cannot be ordered by “polymerase ribozyme fitness (log ratio)” value: ≤ -4.2 for the first, ≤ -4.2 for the second.

A28U G42C G83C A121U and C27U G70C A138G cannot be ordered by “polymerase ribozyme fitness (log ratio)” value: ≤ -4.2 for the first, ≤ -4.2 for the second.

A28G U145C and C27G U53A U55A A91G C103G A137U cannot be ordered by “polymerase ribozyme fitness (log ratio)” value: ≤ -4.2 for the first, ≤ -4.2 for the second.

Compared with A30C C79U A119U C129G U134G A150G, A28U G59C C93U A138G is lower in “polymerase ribozyme fitness (log ratio)” value: -4.04 for the first, ≤ -4.2 for the second.

C27U U44A C54U U56A A60U U82A C85U A97C C105G A110C C118A and A28U G70C A91G G133C cannot be ordered by “polymerase ribozyme fitness (log ratio)” value: ≤ -4.2 for the first, ≤ -4.2 for the second.

U31A A40U A49C U61A C76G C85U and A30U G42U G65A G86U A121U cannot be ordered by “polymerase ribozyme fitness (log ratio)” value: ≤ -4.2 for the first, ≤ -4.2 for the second.

A28U G50A U77C C85A C96G C105G G141A U144C and A30G C63A C99U cannot be ordered by “polymerase ribozyme fitness (log ratio)” value: ≤ -4.2 for the first, ≤ -4.2 for the second.

Going from A29G C93U A107G U148G to C27U A47U U53A, the “polymerase ribozyme fitness (log ratio)” value rises from ≤ -4.2 to -2.28.

A30C G50C G65A G84A U109G A142U and A29U C54U U56G C57U C93U C103U G133A cannot be ordered by “polymerase ribozyme fitness (log ratio)” value: ≤ -4.2 for the first, ≤ -4.2 for the second.

A30U U53G G84A and A29C A30C G62C C125G A137G A142U are within 0.2 log units of each other in “polymerase ribozyme fitness (log ratio)” value: -4.15 for the first, -4.11 for the second.

U31A A37U U90G C93U C125G G141A and A30C C105U cannot be ordered by “polymerase ribozyme fitness (log ratio)” value: ≤ -4.2 for the first, ≤ -4.2 for the second.

Going from A28U A47G C96A G141A to A30U U33C C36G U56A C85U C114G, the “polymerase ribozyme fitness (log ratio)” value rises from ≤ -4.2 to -3.84.

Going from A30G C149G to A28U C57G, the “polymerase ribozyme fitness (log ratio)” value rises from ≤ -4.2 to -3.84.

Going from A30U U55A C79U C87U A115C C118G to A28C A30U, the “polymerase ribozyme fitness (log ratio)” value rises from ≤ -4.2 to -3.88.

A28C C38A G48C A73G U144C and A28U C63U C72U C93U C105G A142U cannot be ordered by “polymerase ribozyme fitness (log ratio)” value: ≤ -4.2 for the first, ≤ -4.2 for the second.

A28C A66G U148A and C27G U31C G62C C63G C85U A142U cannot be ordered by “polymerase ribozyme fitness (log ratio)” value: ≤ -4.2 for the first, ≤ -4.2 for the second.
